Assay results as given in the nanobody polyreactivity screen of Harvey et al. (2022).

Test: yeast display, Sf9 membrane polyspecificity reagent, FACS + sequencing; frameworks hold sequencing errors
Method in brief: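 Galactose induction of a Saccharomyces cerevisiae BJ5465 synthetic nanobody display library ran 36–48 hours. The cells were then stained for 1 hour at 4 °C with 10% biotinylated, detergent-solubilized Sf9 membrane reagent, pulled down on streptavidin microbeads and FACS-sorted into low and high (top ~1%) gates on expression and reagent-binding fluorescence. Labels for polyreactivity follow the gate of origin.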

| Sequence | polyreactivity (PSR sort gate) |
| --- | --- |
| QVQLVESGGGLVQAGGSLRLSCAASGLIFDVYAMGWYRQAPGKERELVAVISRGGSTNYADSVKGRFTISRDNANNTVYLQMNSLKPEDTAVYYCAAGLVVSYPQNNYSVSFYARGYWGQGTQVTVSS | high polyreactivity |
| QVQLVESGGGLVQAGGSLRLSCAASGRIFTKYAMGWYRQAPGKERELVAAISQIGGSTYYADSVKGRFTISRDKAKNTVYLQMNSLKPEDTAVYYCAARWREASYRYENWGQGTQVTVSS | high polyreactivity |
| QVHLVESAGGLVQAGGSLRLSCAASGRIFTPYAMGWYRQAPGKERELVAVIRDGSTYYADSVKGRFTISRDNAKNTVYLQMNSLKPEDSAVYYCRYDIWVWWSGAYDYWGQGTQVTVSS | low polyreactivity |
| QVQLVESGGGLFQAGGRLRLSCASSGYTFDYYTMAWYRQAPGKERELVARITASGGSTYYADSVKGRFTISRDNAKNTVYLQMNSLKPEDTAVYYCAADYWWYTGYDYWGQGTQVTVSS | high polyreactivity |
| QVQLVESGGGLVQAGGSLRLSCAASGSIFTFYAMGWYIQAPGKERELVAAISSGGDTYYADSVKGRFTISRDNAKNTVYLQKNILKPEDTAVYYCAADWRGSYLYGYYYWGQGTQVTVSS | low polyreactivity |
| QVQLVESGGGLVQAGGSLRLSCAASGFIIYGYAMGWYRQAPGKESELVAAISRRSASTYYADSVKGRFTISRDNAKNTVYLQMNSLNPEDTAVYYCNAASARGVIGYKPLWYARGYWGQGTQVTVSS | high polyreactivity |
| QVQLVESGGGVVQAGGSLRLSCAASGFTFGLYAMGWYRQAPGKERELVAVISSSGGSTYYADSVKGRFTISRDNAKNTVYLQMNSLKPEDTAVYYCAAEWHDYKFDVTYDYWGQGTQVTVSS | low polyreactivity |
| QVQLVESGGGLVQAGGSIRLICAASGFTFSRYAMGWYRQAPGKERELVAVISSSGSRTYYADSVKGRFTISRDNAKNTVYLQMNSLKPEDTAVYYCAAKSRPRYYGTEPFDSWGQGTQVTVSS | high polyreactivity |
| QVQLVESGGGLVQAGGSLRLSCAASGSIFVINAMGWYRQAPGKERELVAAIDWSGDSTYYADSVKVRFTISRDNAKNTVYLEMNSLKPEDTAVYYCAADLDSRGTYGRYEYWGQGTQVTVSS | low polyreactivity |
| QVQLVESGGGLVQAGGSLRLSCAASGITFDANAMGWYRQAPGKERELVARISSGGSTNYADSVKGRFTISRDNAKNTVYLQMNSLKPEDTAVYYCNTDLTGLDAEYDYWGQGTQVTVSS | low polyreactivity |
| QVQLVESGGGLVQAGGSLRLSCAASGFIFYNYALGWYRQAPGKERELVAAISASGGRSYYADSVKGRFTISRDNAKNTVYLQMNRLKPEDTAVYYCNARVNYKGYDYWGQGTQVTVSS | high polyreactivity |
| QVQLVESGGGVVQAGGSLRLSCAASGFTFARYTMGWYRPAPGKERELVAAISSRGSSTYYADSVKGRFTISRDNAKNTVYLQMNSLKPEDTAVYYCAKAYYTPYGVYVLHYYWGQGTQVTVSS | high polyreactivity |
| QVQLVVSGGGLVQPGGSLRLSCAASGRTFPYYAMGWYIQAPGKERELVARITGSGTSTNYADSVKGRFTISRDKSKNTVYLKMNSLKPEDTAVYYCAAPKYGSYYIADYEYWGQGTHVTVSS | low polyreactivity |
| QVQLVESGGGLVQAGGSLRLSCAASGSIFGVNAMGWYRQAHGKERELVASITGGDSTNYADSVKGRFTISRDNAKNTVYLLMNSLKPEDTAVYYCAKDHYYRYEEGDYWGQGTQVTVSS | low polyreactivity |
| QVQLVESGGGLVQAGGSLRLSCAASGGIFYGYAMGWYRQAPGKERELVAAISDSGGSTYYADSVKGRFTISRDNAKNTVYLQMNSLKPEDTAVYYCATDAPVGGYVSEGDYWGQGTQVTVSS | low polyreactivity |
| QVQLVESGGGLVQAGGSLRLSCAASGLTFGFNAMGWYRQAPWKERELDAAISSGGSTYYADSVKGRFTISRDNAKNTVYLQMNSLKPEDTAVYYCAKSGGSSQYWYGYWGQGTQVTVSS | high polyreactivity |
| QVQHVESGRGLVQAGGSLRLSCAASGITFRYYAMGWYRQAPGKERELVAAISRGTSTKYADSVKGRFTISRDNAKNTVYLQMNSQKPEDTAVYYCAVYGYWSKSDYWGQGTQVTVSS | low polyreactivity |
| QVQLVESGGGLVQAGGSLRLSCAASGFTFKYNAMGWYRQAPGKERELVAGITLRGGSTYYADSVKGRFTISRDNAKNTVYLQMNSLKPEDTAVYYCGAAASNWREYWYWGQGTQVTVSS | low polyreactivity |
| QVQLVESGGGLVQAGGSLRLSCAASGIIFAQYTMGWYRQAPGKERELVAAINRNGGSTYYADSVKGRFTISRDNAKNTVYLQMNSLKPEDTAVYYCNADALGFRYDYWGQGTQVTLSS | low polyreactivity |
| QVQLVESGGGLVQAGGSIRLSCASSGSTFTIYAMGWYRPAPGKERELVAAISGTGGTKYADSVKGRFTISRDNAKNTVYLQMNSLKPEDTAVYYCAVGLVPLRDGWHFYYEFDSWGQGTQVTVSS | low polyreactivity |

| Sequence | polyreactivity (PSR sort gate) |
| --- | --- |
| QVQLVESGGGLVQAGGSLRLSCAASGSIFYYYAMGWYRQAPGKERELVADISISGGSTYYADSVKGRFTISRDNAKNTVYLQMNSLKPEDTAVYYCAATDYLWEPTVSNWGYTFDSWGQGTQVTVSS | low polyreactivity |
| QVQLVESGGGLVQAGGSLRLSCAASRFYTMGWYIPAPGKERELVAAISWSGGDTYYADSVKGRYTISRDNAKNTVYLQMNSLKQEDTAVYYCPKKTIGSYVHEPYYYWGQGNQVTVSS | low polyreactivity |
| QVKLVESGGGLVQAGGSLRLSCAASGRIFYYNAMGWYRQAPGKERELVSAIRVRGGSTYYADSVKGRFTISRDNAKNTVYLQMNSLNPEDTAVYYCNSSDYKISATNAVVRYYYWGQGTQVTVSS | high polyreactivity |
| QVQLVESGGGLVQAGGSLRLSCAASGRTFDGYAMGWYRQAPGKERELVAAISTSGVRTYYADSVKGRFTISRDNAKNTVYLQMNSLKPEDTAVYYCAADWTGGYEYWGQGTQVTVSS | high polyreactivity |
| QVQHVESGGGLVQAGGSLRLSCAASGLIFSRYVMGWYRQAPGKERELVAAISRSGGSTYYADSVKGRFTISRDNAKNTVYLQMNSLKPEDTAVYYCNAGRRTGRYGYWGQGTQVTVSS | high polyreactivity |
| QVQLVESGGGLVQAGGSLRISCAASGSTFKGYAMGWYRQSPGKERELVAAISRSGTRTYYADSVKVRFTISRDTAKNTVYLQMNSLNPEDTAVYSCNKDTGYIAHDNENGRDYWGQGTQVTVSS | low polyreactivity |
| QVQLVESGGGLVQAGGSLRLSCAASGSIFPVNTMGWYRQAPGKERELVAAITQRGGRTYYADSVKGRFTISRDNAKNTVYLQMNSLKPEDTAVYYCNRDLGAGGYDYWGQGTQVTVSS | low polyreactivity |
| QVQLVESGGGLVQAGGSLRLSCASSGIILYYYVMGWYRQAPGKERELVAAINRSGTSTYYADSVKGRFTISRDNAKNTVYLQMNSLKPEDTAVYYCAAERYWSGGVFDYDYWGQGTQVTVSS | high polyreactivity |
| QVQLVESGGGLVQAGGSLRLSCAASGRTFIRNVMGWYRQAPGKERELVAGITGGGNTYYADSVKGRFTISRDNAKNTVYLQMNSLKPEDTAVYECAVRYPSYGLSYVRYGYWGQVTQVTVSS | high polyreactivity |
| QVQLVESGGGLVQAGGSLRLNCAASGIIFIVYRMGWYRQAPGKERELVASINYGNGSTYYADSVKGRFTISRDNAKTTVYLQMNSLKQEDTAVYYCNADYTGTRTDSVTPEYEYWGQGTQVTVSS | low polyreactivity |
| QVQLVESGGGLVQAGGSLRLSCAASGRTFRWNAMGWSRQAPGKERELVASISSGGRTNYADSVKGRFTLSRDNAKNTVYLQMNSLKPEDTAVYYCAKRVSWPQLYDYWGQGTQVTVSS | high polyreactivity |
| QVQLVESGGGLVQAGGSLRLSCAASGSIFRTNAMGWYRQAPGKERELVAAISRRGSNTYYADSVKGRFTISRDNAKNTVYLLMNSMKPEDTAVYYCAADVSGSKYDYWGQGTQVTVSS | high polyreactivity |
| QVQLVESRGGLVQAGGSLRLSCAASGITFYTYTMGWYRQAPGKERELVAVISASGARTYYADSVKGRFTISRDNAKNTVYLQMNSLKPEDTAVYYFAARSFYISPWRFDYWGQGTQVTVSS | high polyreactivity |
| QVQLVESGGGLVQAGGSLRLSCAASGFTFNYNAMGWYRQAPGKERELVAAISASGGTTYYADSVKGRFTISRDNAKNTVYLQMNSLKPEDTAVYYCAAPKLDDYDYWGQGTQVTVSS | low polyreactivity |
| RVQLVESGGGLVQAGGSLRLSCAASGRIFDNYVMGCYRQAPGKDRELLAAISSGGGTYYADSVKGRFTISRDNAMNTVYLQMNSLKPEDTAVYFCAKRRVYDRSFGRYDYWGQGTQVTGSS | low polyreactivity |
| QVQLVESGGGLVQAGGSLRLSCAASGSTFGVNAMGWYRQAPGKERELVAAIDADGGITYYADSVKGRFTISRDNAKNTVYLQMNILKPEDTAVYYCAARVAVYFSYGSPYWYEYDYWGQGTQVTVSS | low polyreactivity |
| QVQLVESGGGLVQAGGSLRFSCADSGSIFRYAMGWYRQAPGKERELVAGMSASGGRTYYADSVKGRFTISRDNAKNTVYLQMNSLKPEDTAVYYCNAVTREYQRPPVPRSYLYDYWGQGTQVTVSS | high polyreactivity |
| QVQLVESGGGLVQAGGSLRLSCAASGFTFWANAMGWYRQAPGKERELVAAISWSGGSTTYADSVKGRFTISRDNAKNTVYLQMNSLKPEDTAVYYCATDYGHYVTYRLSDYWGQGTQVTVSS | low polyreactivity |
| QVQLEESGGGLVQAGGSLRLSCAASGRIFDDNAMGWYRQAPGKERELVAAISSGDSTKYADSVKGRFTISRDNAKNTVYLQMNSLKPEDTAVYYCAAERNHGLVGSESVGRNDYWGQGTQVTVSS | low polyreactivity |
| QVQLVESGGGLVQAGGSLRLSCAASGRTFYRNPMGWYRQAPAKERELVAANSWSGGRTFYADSVKGRFTISRDNAKNTVYLHMNSMKPEDTAVYYCAKSYTTPGYYRYDYWGQGTQVTVSS | high polyreactivity |
